Positions count from the first letter of the chain named.
B1: anti-PG variant Fc-region antibody M1.3.17 (antibody, V domains shown)
VH: EVKLLESGGGLVQPGGSLKLSCAASGIDFRRYWMNWVRQAPGKGLEWIGEIDPDSSTINYTPSLKDKFIISRDNAKNTMYLQMRKVRSEDTALYYCARPYDYGAWFAYWGQGTLVTVSA
VL: QAVVTQESALTTSPGETVTLTCRSTTGAVTTSNYANWVQEKPDHLFTGLIGGTNKRAPGVPARFSGSLIGDKAALTITGAQTEDEAIYFCALWYSDHWVFGGGTKLTVL
notes: Monomeric, bivalent full-length antibody with murine variable domains; Biotinylated when used as capture antibody; also called anti-PG antibody clone 1.3.17; M1.3.17-Bi
B2: anti-AAA variant Fc-region antibody M1.6.22 (antibody, V domains shown)
VH: EVQLVESGGDLVKPGGSLKLSCAASGFTFSSYGMSWVRQTPDKRLEWVATISSGGSYIYYPDSVKGRFTISRDNAKNTLYLQMSSLKSEDTAMYYCARLGMITTGYAMDYWGQGTSVTVSS
VL: DVLMTQTPLSLPVSLGDQASISCRSSQTIVHSTGHTYLEWFLQKPGQSPKLLIYKVSNRFSGVPDRFSGSGSGTDFTLKISRVEAEDLGVYYCFQGSHVPYTFGGGTKLEIK
notes: Murine variable domains; also called M1.6.22-Bi
B3: anti-PG variant Fc-region antibody M1.7.24 (monomeric, bivalent) (antibody, V domains shown)
VH: B1 VH with I27F, R30S, D52T, M79L, R84I, A97V, Y108S
VL: B1 VL with T25S, D96N
notes: Full-length Y-shaped antibody with murine variable domains; Biotinylated when used as capture antibody; also called anti-PG antibody clone 1.7.24; M1.7.24-Bi

Each binder was assayed against T1, anti-VEGF/ANG2 antibody (IgG1 subclass with mutations P329G/L234A/L235A/I253A/H310A/H435A) (assay: ELISA assay C, tracer FcγRI-Dig, target 50 ng/mL).
T1 construct: Format of the bispecific antibody not described; Positions are EU numbers, not positions on the UniProt entry; also called sample 1; antibody 1
For B1, the “signal [OD405 nm]” value was 1.17 OD405 nm.
With B2 the “signal [OD405 nm]” value was 0.077 OD405 nm.
In the case of B3, the “signal [OD405 nm]” value is reported as 0.084 OD405 nm.

Each binder was assayed against T2, anti-VEGF/ANG2 antibody (IgG1 subclass with mutations P329G/L234A/L235A) (assay: ELISA assay C, tracer FcγRI-Dig, target 50 ng/mL).
T2 construct: Positions are EU numbers; also called sample 2; antibody 2
With B1 the “signal [OD405 nm]” value was 1.21 OD405 nm.
With B2 the “signal [OD405 nm]” value was 0.057 OD405 nm.
In the case of B3, the “signal [OD405 nm]” value is reported as 0.094 OD405 nm.

Each binder was assayed against T3, anti-IGF-1R antibody (IgG1 subclass with mutations I253A/H310A/H435A) (assay: ELISA assay C, tracer FcγRI-Dig, target 50 ng/mL).
T3 construct: Positions are EU numbers; also called sample 3; antibody 3
With B1 the “signal [OD405 nm]” value was 1.21 OD405 nm.
For B2, the “signal [OD405 nm]” value was 1.06 OD405 nm.
With B3 the “signal [OD405 nm]” value was 0.095 OD405 nm.

What follows are binders tested against T4, anti-P-Selectin antibody (IgG4 subclass with mutations S228P/L235E) (assay: ELISA assay C, tracer FcγRI-Dig, target 50 ng/mL).
T4 construct: Positions are EU numbers; also called sample 4; antibody 4
For B1, the “signal [OD405 nm]” value was 1.15 OD405 nm.
With B2 the “signal [OD405 nm]” value was 0.054 OD405 nm.
In the case of B3, the “signal [OD405 nm]” value is reported as 0.066 OD405 nm.

These binders were tested against T5, anti-VEGF/ANG2 antibody (wild-type IgG1 subclass) (UniProt P01857-1 1-330 = IgG part) (assay: ELISA assay C, tracer FcγRI-Dig, target 50 ng/mL).
T5 construct: also called sample 5; antibody 5
For B1, the “signal [OD405 nm]” value was 1.16 OD405 nm.
For B2, the “signal [OD405 nm]” value was 0.067 OD405 nm.
B3 was tested, and the “signal [OD405 nm]” value was 0.066 OD405 nm.

Each binder was assayed against T1, anti-VEGF/ANG2 antibody (IgG1 subclass …) (assay: ELISA assay B, tracer M1.7.10-Dig, target 2 ng/mL).
Protocol: (§1) Biotinylated anti-PG Fc-region antibody or biotinylated anti-AAA Fc-region antibody, respectively, was bound to the wells of a streptavidin-coated multi-well plate (SA-MTP) to produce a capture plate. Excess of unbound antibody was removed by washing. Sample/standard antibodies spiked in human and cynomolgus monkey serum (10% final concentration) was added to wells of the SA-MTP multi-well plate coated with the capture plate and incubated for 1 hour at room temperature. After washing, the wells were incubated with digoxygenylated anti-human kappa antibody M1.7.10 (see e.g. WO 2011/048043, incorporated herein by reference). After washing the bound digoxygenylated anti-human kappa antibody complex was incubated with a horseradish peroxidase (HRP) labelled anti-digoxygenin antibody. After another washing step, an ABTS solution was added to the wells and incubated. The product of the color reaction was measured by Elisa reader at 405 nm wavelength (reference wavelength: 490 nm). Absorbance values of each sample or standard were determined in triplicates.
B1 was tested, and the “signal [OD405 nm]” value was 0.036 OD405 nm.
In the case of B2, the “signal [OD405 nm]” value is reported as 0.041 OD405 nm.
B3 was tested, and the “signal [OD405 nm]” value was 0.049 OD405 nm.

What follows are binders tested against T2, anti-VEGF/ANG2 antibody (IgG1 subclass …) (assay: ELISA assay B, tracer M1.7.10-Dig, target 2 ng/mL).
Protocol: as §1
B1 was tested, and the “signal [OD405 nm]” value was 0.125 OD405 nm.
For B2, the “signal [OD405 nm]” value was 0.041 OD405 nm.
With B3 the “signal [OD405 nm]” value was 1.73 OD405 nm.

What follows are binders tested against T5, anti-VEGF/ANG2 antibody (wild-type IgG1 …) (assay: ELISA assay B, tracer M1.7.10-Dig, target 2 ng/mL).
Protocol: as §1
In the case of B1, the “signal [OD405 nm]” value is reported as 0.043 OD405 nm.
With B2 the “signal [OD405 nm]” value was 0.036 OD405 nm.
In the case of B3, the “signal [OD405 nm]” value is reported as 0.034 OD405 nm.

What follows are binders tested against T1, anti-VEGF/ANG2 antibody (IgG1 subclass …) (assay: ELISA assay B, tracer M1.7.10-Dig, target 6 ng/mL).
Protocol: as §1
In the case of B1, the “signal [OD405 nm]” value is reported as 0.035 OD405 nm.
In the case of B2, the “signal [OD405 nm]” value is reported as 0.039 OD405 nm.
With B3 the “signal [OD405 nm]” value was 0.053 OD405 nm.

Each binder was assayed against T2, anti-VEGF/ANG2 antibody (IgG1 subclass …) (assay: ELISA assay B, tracer M1.7.10-Dig, target 6 ng/mL).
Protocol: as §1
With B1 the “signal [OD405 nm]” value was 0.196 OD405 nm.
For B2, the “signal [OD405 nm]” value was 0.053 OD405 nm.
In the case of B3, the “signal [OD405 nm]” value is reported as 2.98 OD405 nm.

The binders below were run against T3, anti-IGF-1R antibody (IgG1 subclass …) (assay: ELISA assay B, tracer M1.7.10-Dig, target 6 ng/mL).
Protocol: as §1
With B1 the “signal [OD405 nm]” value was 0.045 OD405 nm.
For B2, the “signal [OD405 nm]” value was 2.73 OD405 nm.
With B3 the “signal [OD405 nm]” value was 0.039 OD405 nm.

The binders below were run against T4, anti-P-Selectin antibody (IgG4 subclass …) (assay: ELISA assay B, tracer M1.7.10-Dig, target 6 ng/mL).
Protocol: as §1
In the case of B1, the “signal [OD405 nm]” value is reported as 0.048 OD405 nm.
With B2 the “signal [OD405 nm]” value was 0.04 OD405 nm.
With B3 the “signal [OD405 nm]” value was 0.037 OD405 nm.

These binders were tested against T5, anti-VEGF/ANG2 antibody (wild-type IgG1 …) (assay: ELISA assay B, tracer M1.7.10-Dig, target 6 ng/mL).
Protocol: as §1
B1 was tested, and the “signal [OD405 nm]” value was 0.046 OD405 nm.
In the case of B2, the “signal [OD405 nm]” value is reported as 0.039 OD405 nm.
With B3 the “signal [OD405 nm]” value was 0.038 OD405 nm.

These binders were tested against T1, anti-VEGF/ANG2 antibody (IgG1 subclass …) (assay: ELISA assay B, tracer M1.7.10-Dig, target 25 ng/mL).
Protocol: as §1
In the case of B1, the “signal [OD405 nm]” value is reported as 0.035 OD405 nm.
B2 was tested, and the “signal [OD405 nm]” value was 0.044 OD405 nm.
For B3, the “signal [OD405 nm]” value was 0.047 OD405 nm.

Each binder was assayed against T2, anti-VEGF/ANG2 antibody (IgG1 subclass …) (assay: ELISA assay B, tracer M1.7.10-Dig, target 25 ng/mL).
Protocol: as §1
In the case of B1, the “signal [OD405 nm]” value is reported as 0.213 OD405 nm.
B2 was tested, and the “signal [OD405 nm]” value was 0.092 OD405 nm.
B3 was tested, and the “signal [OD405 nm]” value was 3.16 OD405 nm.

These binders were tested against T3, anti-IGF-1R antibody (IgG1 subclass …) (assay: ELISA assay B, tracer M1.7.10-Dig, target 25 ng/mL).
Protocol: as §1
With B1 the “signal [OD405 nm]” value was 0.046 OD405 nm.
In the case of B2, the “signal [OD405 nm]” value is reported as 2.89 OD405 nm.
With B3 the “signal [OD405 nm]” value was 0.048 OD405 nm.

Each binder was assayed against T4, anti-P-Selectin antibody (IgG4 subclass …) (assay: ELISA assay B, tracer M1.7.10-Dig, target 25 ng/mL).
Protocol: as §1
With B1 the “signal [OD405 nm]” value was 0.047 OD405 nm.
B2 was tested, and the “signal [OD405 nm]” value was 0.048 OD405 nm.
In the case of B3, the “signal [OD405 nm]” value is reported as 0.04 OD405 nm.

The binders below were run against T5, anti-VEGF/ANG2 antibody (wild-type IgG1 …) (assay: ELISA assay B, tracer M1.7.10-Dig, target 25 ng/mL).
Protocol: as §1
In the case of B1, the “signal [OD405 nm]” value is reported as 0.043 OD405 nm.
With B2 the “signal [OD405 nm]” value was 0.047 OD405 nm.
B3 was tested, and the “signal [OD405 nm]” value was 0.041 OD405 nm.

What follows are binders tested against T1, anti-VEGF/ANG2 antibody (IgG1 subclass …) (assay: ELISA assay B, tracer M1.7.10-Dig, target 0 ng/mL (blank)).
Protocol: as §1
In the case of B1, the “signal [OD405 nm]” value is reported as 0.035 OD405 nm.
With B2 the “signal [OD405 nm]” value was 0.047 OD405 nm.
B3 was tested, and the “signal [OD405 nm]” value was 0.049 OD405 nm.

Each binder was assayed against T2, anti-VEGF/ANG2 antibody (IgG1 subclass …) in the same assay as above.
Protocol: as §1
With B1 the “signal [OD405 nm]” value was 0.038 OD405 nm.
In the case of B2, the “signal [OD405 nm]” value is reported as 0.038 OD405 nm.
With B3 the “signal [OD405 nm]” value was 0.046 OD405 nm.

The binders below were run against T3, anti-IGF-1R antibody (IgG1 subclass …) in the same assay as above.
Protocol: as §1
In the case of B1, the “signal [OD405 nm]” value is reported as 0.045 OD405 nm.
B2 was tested, and the “signal [OD405 nm]” value was 0.037 OD405 nm.
B3 was tested, and the “signal [OD405 nm]” value was 0.04 OD405 nm.

Each binder was assayed against T4, anti-P-Selectin antibody (IgG4 subclass …) in the same assay as above.
Protocol: as §1
B1 was tested, and the “signal [OD405 nm]” value was 0.049 OD405 nm.
In the case of B2, the “signal [OD405 nm]” value is reported as 0.038 OD405 nm.
In the case of B3, the “signal [OD405 nm]” value is reported as 0.035 OD405 nm.

These binders were tested against T5, anti-VEGF/ANG2 antibody (wild-type IgG1 …) in the same assay as above.
Protocol: as §1
B1 was tested, and the “signal [OD405 nm]” value was 0.043 OD405 nm.
For B2, the “signal [OD405 nm]” value was 0.037 OD405 nm.
B3 was tested, and the “signal [OD405 nm]” value was 0.039 OD405 nm.
